Ends that are not written are not given here.
Assays:
Test in all cases: peptide microarray
[1] = target: T1, wild-type ApoC3 peptide DKFSEFWDLDPEV (SEQ ID NO: 44) (human, not fully specified (bridges); also: cyclic constrained, ring type and positions not given here)
T1 construct: 13 aa cyclic constrained peptide
T1 peptide: DKFSEFWDLDPEV
Experimental: (§1) F64 was completely variable.
(§2) Pre: staining of one of the ApoC3 peptide microarrays was done with the secondary antibody goat anti-human IgG (Fe) DyLight680 (1:5000) and control antibody mouse monoclonal anti-HA (12CA5) DyLight800 (1:2000) to investigate background interactions of the secondary antibody with the antigen-derived peptides that could interfere with the main assays. Subsequent incubation of other ApoC3 peptide microarrays with antibody samples was followed by staining with secondary and control antibodies as well as read-out at scanning intensities of 7/7 (red/green). The additional HA peptides framing the peptide arrays were stained as internal quality control to confirm the assay quality and the peptide microarray integrity.

ApoC3 peptide … K60C = target: T2, ApoC3 peptide … K60C (human, not fully specified (bridges); also: cyclic constrained)
T2 peptide: DCFSEFWDLDPEV
Experimental: as §1, §2

ApoC3 peptide … P69C = target: T3, ApoC3 peptide … P69C (human, not fully specified (bridges); also: cyclic constrained)
T3 peptide: DKFSEFWDLDCEV
Experimental: as §1, §2

ApoC3 peptide … W65D = ApoC3 peptide … W65D (human, cyclic constrained)
Experimental: as §1, §2

ApoC3 peptide … V71D = ApoC3 peptide … V71D (human, cyclic constrained)
Experimental: as §1, §2

ApoC3 peptide … D59E = target: T4, ApoC3 peptide … D59E (human, cyclic constrained)
T4 peptide: EKFSEFWDLDPEV
Experimental: as §1, §2

ApoC3 peptide … K60F = target: T5, ApoC3 peptide … K60F (human, not fully specified (bridges); also: cyclic constrained)
T5 peptide: DFFSEFWDLDPEV
Experimental: as §1, §2

ApoC3 peptide … L67F = target: T6, ApoC3 peptide … L67F (human, not fully specified (bridges); also: cyclic constrained)
T6 peptide: DKFSEFWDFDPEV
Experimental: as §1, §2

ApoC3 peptide … E70F = ApoC3 peptide … E70F (human, cyclic constrained)
Experimental: as §1, §2

ApoC3 peptide … K60G = target: T7, ApoC3 peptide … K60G (human, not fully specified (bridges); also: cyclic constrained)
T7 peptide: DGFSEFWDLDPEV
Experimental: as §1, §2

ApoC3 peptide … E63G = ApoC3 peptide … E63G (human, cyclic constrained)
Experimental: as §1, §2

ApoC3 peptide … E70G = target: T8, ApoC3 peptide … E70G (human, not fully specified (bridges); also: cyclic constrained)
T8 peptide: DKFSEFWDLDPGV
Experimental: as §1, §2

ApoC3 peptide … D59H = target: T9, ApoC3 peptide … D59H (human, cyclic constrained)
T9 peptide: HKFSEFWDLDPEV
Experimental: as §1, §2

ApoC3 peptide … K60H = target: T10, ApoC3 peptide … K60H (human, not fully specified (bridges); also: cyclic constrained)
T10 peptide: DHFSEFWDLDPEV
Experimental: as §1, §2

ApoC3 peptide … S62H = ApoC3 peptide … S62H (human, cyclic constrained)
Experimental: as §1, §2

ApoC3 peptide … F64K = target: T11, ApoC3 peptide … F64K (human, not fully specified (bridges); also: cyclic constrained)
T11 peptide: DKFSEKWDLDPEV
Experimental: as §1, §2

ApoC3 peptide … D68K = target: T12, ApoC3 peptide … D68K (human, cyclic constrained)
T12 peptide: DKFSEFWDLKPEV
Experimental: as §1, §2

ApoC3 peptide … P69K = target: T13, ApoC3 peptide … P69K (human, not fully specified (bridges); also: cyclic constrained)
T13 peptide: DKFSEFWDLDKEV
Experimental: as §1, §2

ApoC3 peptide … F64L = target: T14, ApoC3 peptide … F64L (human, not fully specified (bridges); also: cyclic constrained)
T14 peptide: DKFSELWDLDPEV
Experimental: as §1, §2

ApoC3 peptide … V71L = ApoC3 peptide … V71L (human, cyclic constrained)
Experimental: as §1, §2

ApoC3 peptide … P69M = target: T15, ApoC3 peptide … P69M (human, not fully specified (bridges); also: cyclic constrained)
T15 peptide: DKFSEFWDLDMEV
Experimental: as §1, §2

ApoC3 peptide … E63N = ApoC3 peptide … E63N (human, cyclic constrained)
Experimental: as §1, §2

ApoC3 peptide … D66P = target: T16, ApoC3 peptide … D66P (human, not fully specified (bridges); also: cyclic constrained)
T16 peptide: DKFSEFWPLDPEV
Experimental: as §1, §2

ApoC3 peptide … S62Q = ApoC3 peptide … S62Q (human, cyclic constrained)
Experimental: as §1, §2

ApoC3 peptide … F64Q = target: T17, ApoC3 peptide … F64Q (human, not fully specified (bridges); also: cyclic constrained)
T17 peptide: DKFSEQWDLDPEV
Experimental: as §1, §2

ApoC3 peptide … W65Q = target: T18, ApoC3 peptide … W65Q (human, not fully specified (bridges); also: cyclic constrained, ring type and places not given here)
T18 peptide: DKFSEFQDLDPEV
Experimental: as §1, §2

ApoC3 peptide … S62R = ApoC3 peptide … S62R (human, cyclic constrained)
Experimental: as §1, §2

ApoC3 peptide … K60S = target: T19, ApoC3 peptide … K60S (human, not fully specified (bridges); also: cyclic constrained)
T19 peptide: DSFSEFWDLDPEV
Experimental: as §1, §2

ApoC3 peptide … K60T = target: T20, ApoC3 peptide … K60T (human, not fully specified (bridges); also: cyclic constrained)
T20 peptide: DTFSEFWDLDPEV
Experimental: as §1, §2

ApoC3 peptide … S62T = ApoC3 peptide … S62T (human, cyclic constrained)
Experimental: as §1, §2

ApoC3 peptide … E63T = ApoC3 peptide … E63T (human, cyclic constrained)
Experimental: as §1, §2

ApoC3 peptide … L67T = target: T21, ApoC3 peptide … L67T (human, not fully specified (bridges); also: cyclic constrained)
T21 peptide: DKFSEFWDTDPEV
Experimental: as §1, §2

ApoC3 peptide … D68V = ApoC3 peptide … D68V (human, cyclic constrained)
Experimental: as §1, §2

ApoC3 peptide … F61W = target: T22, ApoC3 peptide … F61W (human, not fully specified (bridges); also: cyclic constrained)
T22 peptide: DKWSEFWDLDPEV
Experimental: as §1, §2

ApoC3 peptide … S62W = ApoC3 peptide … S62W (human, cyclic constrained)
Experimental: as §1, §2

ApoC3 peptide … F64W = target: T23, ApoC3 peptide … F64W (human, not fully specified (bridges); also: cyclic constrained)
T23 peptide: DKFSEWWDLDPEV
Experimental: as §1, §2

ApoC3 peptide … D68Y = ApoC3 peptide … D68Y (human, cyclic constrained)
Experimental: as §1, §2

B1: anti-ApoC3 antibody 6A6 (antibody, V domains shown)
VH: EVQLVESGGGLVQPGGSLRLSCAASGFTFSSYAGRWVRQVPGKGLEWVSSINAGGGSTSYADSVKGRFTISRDNAKNTLYLQMNSLKPEDTAKYYCTQNSYRYWGQGTRVAVSS
VL: DVVLTQTPGSLSVVPGESASISCKASQSLIHTDGKTYLYWLLQKPGQRPQLLIYQVSSHESGVPDRFTGSGSGTDFTLKISGVKAEDAGVYYCAQATYNPRTFGQGTKLEIK
notes: it was detected with goat anti-human IgG (Fc); also called mAb 6A6; llama antibody 6A6
- % of binding to wild-type peptide [1]: 100%
- % of binding to wild-type peptide (ApoC3 peptide … K60C): 84%
- % of binding to wild-type peptide (ApoC3 peptide … P69C): 28.9%
- % of binding to wild-type peptide (ApoC3 peptide … W65D): 130%
- % of binding to wild-type peptide (ApoC3 peptide … V71D): 223%
- % of binding to wild-type peptide (ApoC3 peptide … D59E): 170%
- % of binding to wild-type peptide (ApoC3 peptide … K60F): 83.7%
- % of binding to wild-type peptide (ApoC3 peptide … L67F): 26.3%
- % of binding to wild-type peptide (ApoC3 peptide … E70F): 9.36%
- % of binding to wild-type peptide (ApoC3 peptide … K60G): 117%
- % of binding to wild-type peptide (ApoC3 peptide … E63G): 20.5%
- % of binding to wild-type peptide (ApoC3 peptide … E70G): 1.26%
- % of binding to wild-type peptide (ApoC3 peptide … D59H): 85.8%
- % of binding to wild-type peptide (ApoC3 peptide … K60H): 124%
- % of binding to wild-type peptide (ApoC3 peptide … S62H): 26.5%
- % of binding to wild-type peptide (ApoC3 peptide … F64K): 107%
- % of binding to wild-type peptide (ApoC3 peptide … D68K): 0%
- % of binding to wild-type peptide (ApoC3 peptide … P69K): 26.3%
- % of binding to wild-type peptide (ApoC3 peptide … F64L): 89.7%
- % of binding to wild-type peptide (ApoC3 peptide … V71L): 78%
- % of binding to wild-type peptide (ApoC3 peptide … P69M): 44.1%
- % of binding to wild-type peptide (ApoC3 peptide … E63N): 38.8%
- % of binding to wild-type peptide (ApoC3 peptide … D66P): 0%
- % of binding to wild-type peptide (ApoC3 peptide … S62Q): 111%
- % of binding to wild-type peptide (ApoC3 peptide … F64Q): 133%
- % of binding to wild-type peptide (ApoC3 peptide … W65Q): 38.3%
- % of binding to wild-type peptide (ApoC3 peptide … S62R): 37.2%
- % of binding to wild-type peptide (ApoC3 peptide … K60S): 156%
- % of binding to wild-type peptide (ApoC3 peptide … K60T): 149%
- % of binding to wild-type peptide (ApoC3 peptide … S62T): 139%
- % of binding to wild-type peptide (ApoC3 peptide … E63T): 35.9%
- % of binding to wild-type peptide (ApoC3 peptide … L67T): 100%
- % of binding to wild-type peptide (ApoC3 peptide … D68V): 0%
- % of binding to wild-type peptide (ApoC3 peptide … F61W): 32.9%
- % of binding to wild-type peptide (ApoC3 peptide … S62W): 4.78%
- % of binding to wild-type peptide (ApoC3 peptide … F64W): 69.5%
- % of binding to wild-type peptide (ApoC3 peptide … D68Y): 0%
